Measured values from patent publication US20240026019A1 (Innovent, published 2024).

T1: rh-TNFR2-His (recombinant human TNFR2, His tag) (human, UniProt P20333 23-257)
T1 construct: Soluble antigen of the ForteBio assay; not shown: His tag
T1 sequence (looked up): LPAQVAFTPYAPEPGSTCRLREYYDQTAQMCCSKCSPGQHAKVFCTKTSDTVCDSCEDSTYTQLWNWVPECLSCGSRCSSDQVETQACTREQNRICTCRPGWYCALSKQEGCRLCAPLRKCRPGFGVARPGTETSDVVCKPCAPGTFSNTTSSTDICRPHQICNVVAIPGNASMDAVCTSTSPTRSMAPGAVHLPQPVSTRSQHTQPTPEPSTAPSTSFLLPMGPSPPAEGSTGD

T2: CYNO-TNFR2-His (cynomolgus monkey TNFR2, His tag) (cynomolgus monkey, UniProt A0A2K5VET2 132-366)
T2 construct: Soluble antigen of the ForteBio assay; also called cTNFR2; not shown: His tag
T2 sequence: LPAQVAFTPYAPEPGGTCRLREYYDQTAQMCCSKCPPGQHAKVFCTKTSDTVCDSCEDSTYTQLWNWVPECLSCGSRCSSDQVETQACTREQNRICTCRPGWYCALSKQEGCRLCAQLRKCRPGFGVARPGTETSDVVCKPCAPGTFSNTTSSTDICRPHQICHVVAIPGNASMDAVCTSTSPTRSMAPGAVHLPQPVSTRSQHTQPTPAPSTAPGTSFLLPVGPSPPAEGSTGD

T3: hTNFR2 protein (coated on the microplate in the blocking ELISA) (human, UniProt P20333 23-257)
T3 construct: The construct coated in the ELISA is not described (it may or may not be the immunogen, Sino biological 10417-H03H)
T3 sequence (looked up): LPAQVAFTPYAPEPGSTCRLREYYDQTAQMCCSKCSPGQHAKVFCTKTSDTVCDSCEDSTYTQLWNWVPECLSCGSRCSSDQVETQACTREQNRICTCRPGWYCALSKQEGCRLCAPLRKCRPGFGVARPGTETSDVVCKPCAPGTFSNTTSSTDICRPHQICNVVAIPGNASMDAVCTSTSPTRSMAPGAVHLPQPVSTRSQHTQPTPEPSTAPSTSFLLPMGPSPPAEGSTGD


Experiments:
[1] = target: T1, rh-TNFR2-His (recombinant human TNFR2, …); assay: BLI (ForteBio), antibody on sensor, 100 nM rh-TNFR2-His in solution, 1:1 model
Protocol: (§1) In the present invention, the equilibrium dissociation constant (KD) for the binding of the 3 exemplary chimeric antibodies of the present invention described above to human TNFR2 (hTNFR2), cynomolgus monkey TNFR2 (cTNFR2), murine TNFR2(mTNFR2), and human TNFR1(hTNFR1) was determined by biological optical interferometry (ForteBio). For comparison, the equilibrium dissociation constant (KD) of a positive control antibody OPI (humanized antibody SBT-002e in WO 2017083525, VH sequence of SEQ ID NO: 58, VL sequence of SEQ ID NO: 59) was determined.
(§2) The ForteBio affinity assay was performed according to the prior art (Estep, P, et al., High throughput solution based measurement of antibody-antigen affinity and epitope binning. MAbs, 2013.5(2): p. 270-278). Briefly, a sensor was equilibrated offline in an assay buffer for 30 min, and was equilibrated online for 60 s to establish a baseline. The purified antibodies obtained as described above were loaded online onto an AHQ sensor (ForteBio) for the ForteBio affinity assay. The sensor with the loaded antibodies was then exposed to each of 100 nM hTNFR2, cTNFR2, mTNFR2, and hTNFR1 antigens for 5 min before transferring the sensor to an assay buffer for 5 min of dissociation for dissociation rate measurement. The kinetic analysis was performed using a 1:1 binding model.

[2] = target: T2, CYNO-TNFR2-His (cynomolgus monkey …); assay: BLI (ForteBio), antibody on sensor, 100 nM CYNO-TNFR2-His in solution, 1:1 model
Protocol: as §1, §2

[3] = target: T3, hTNFR2 protein (coated on the …); assay: blocking ELISA: hTNFR2 coated on the plate, binding of biotinylated TNFα blocked by the antibody; the table row is headed EC50; unit taken from the axis log Conc nM
Protocol: The ability of the chimeric antibodies 3C4, 69B1, and 72G8 and the control antibody OPI to block the binding of human TNFα to hTNFR2 was assayed by ELISA.
The hTNFR2 protein was resuspended and dissolved to a concentration of 2 μg/mL with PBS, and a microplate was coated with the protein and incubated overnight. The plate was blocked with 5% BSA for 1 h, and a biotinylated antigen (Recombinant Biotinylated TNFα protein (ACRO)) was diluted to 2 μg/mL and added to the plate at 10 μL/well. The antibodies prepared as described above (3C4, 69B1, and 72G8) were each diluted in a gradient starting from the maximum concentration of 300 nM for a total of 8 or 12 dilution gradients. The diluted antibodies were added at 100 μL/well and incubated in PBS on ice for 30 min. The antigen-antibody mixture was incubated in a microplate for 90 min and washed three times with PBS, and the supernatant was discarded. 100 μL of Avidin-HRP (Invitrogen) diluted at a 1:5000 ratio was added to each well, incubated at room temperature for 30 min, and washed six times with PBS. A TMB chromogenic solution (solarbio) was added to the plate at 100 μL/well for color development for 1 min, and the reaction was stopped by adding a stop buffer (solarbio) at 100 μL/well. The plate was read on a microplate reader at OD₄₅₀ and OD₆₂₀.

Kd [1] [nM]	koff [1] [s⁻¹]	kon [1] [M⁻¹ s⁻¹]	Kd [2] [nM]	koff [2] [s⁻¹]	kon [2] [M⁻¹ s⁻¹]	IC50 [3] [nM]	Binder
1.36	0.00176	1.29e+06	1.42	0.00201	1.41e+06	3.11	chimeric antibody 3C4 (antibody, human IgG1, kappa, V domains shown) VH: QVQLQQSGPELVKPGASVTISCKASDYSFTNYYIHWVKQRPGQGLEWIGWIYPGNVITKYHEKFKGKAILTADTSSTTAYMQLNSLTSEDSAVYFCARSRATGYFDYWGQGTTLTVSS VL: DIQMTQTTSSLSASLGDRVTISCRASQDIRNYLNWFQQKPDGTIKLLIYYTSRLHSGVPSRFSGSGSGTDYSLTISNLEQEDMATYFCQQFNTLPWTFGGGTKLEIKR
0.265	0.000519	1.96e+06	1.11	0.00198	1.79e+06	2.15	chimeric antibody 69B1 (antibody, human IgG1, kappa, V domains shown) VH: QIQLVQSGPELKKPGETVKISCKASGYTFTDYSMNWVKQAPGKGLKWMGWLNTETGEPIYADDFKGRFVFSLETSASTAYLEINNLNDEDTATYFCAREAIYYGTSYVLDYWGQGTSVTVSS VL: DIVLTQSPASLAVSLGQRATISCRASESVEYYGTNFMQWYQQKPGQPPKLLIYSASNVESGVPARFSGSGSGTDFSLNIHPVEEDDIAVYFCQQSRKDPSTFGEGTNLEIKR
4.18	0.000229	54800	1.15	0.000328	284000	4.56	positive control antibody OPI (humanized antibody SBT-002e in WO 2017083525) (antibody, V domains shown, also called Benchmark OPI) VH: QVTLKESGPALVKPTQTLTLTCTFSGFSLSTSGMGVGWIRQPPGKALEWLAHIWWDDDKFYNPSLKSRLTISKDTSKNQVVLTMTNMDPVDTATYYCARLTGTRYFDYWGQGTTVTVSS VL: DVQMTQSPSSLSASVGDRVTITCKASQDINKFIAWYQQKPGKAPKLLIHYTSTLQPGIPSRFSGSGSGRDYTFTISSLQPEDIATYYCLQYGNLWTFGGGTKVEIK
